Laboratory results published in article PMC2859679 (Journal of molecular biology, 2009).

Biological target: the molecule itself
Assay: crystal structure

B1: MhuD (mycobacterial heme utilization, degrader), Rv3592, from Mycobacterium tuberculosis (enzyme)
chain: MPVVKINAIEVPAGAGPELEKRFAHRAHAVENSPGFLGFQLLRPVKGEERYFVVTHWESDEAFQAWANGPAIAAHAGHRANPVATGASLLEFEVVLDVGGTGKTA
B1: binds.
